Test results published in paper PMC7383920, “Metabolomics analysis and metabolite‐agronomic trait associations using kernels of wheat (Triticum aestivum) recombinant inbred lines” (The Plant Journal, 2020).
Changes are numbered by the printed parent chain. Values belong to the molecule of their own block, whether it stands above or below them.

Assays:
[1] = molecular target: T1, UGT88C13 (TraesCS2B01G012000) (Triticum aestivum, UniProt A0A3B6BZ82); experiment: LC-MS glucosyltransferase assay; assay type: biochemical; settings: UDP-glucose as donor, Tris-HCl pH 7.5, 10 mM MgCl2, 37 °C; mainly 7-O-glucosylation
T1 construct: gene LOC123043080; also cloned in pGEX-6p-1 (GST)
T1 sequence (A0A3B6BZ82 1-489): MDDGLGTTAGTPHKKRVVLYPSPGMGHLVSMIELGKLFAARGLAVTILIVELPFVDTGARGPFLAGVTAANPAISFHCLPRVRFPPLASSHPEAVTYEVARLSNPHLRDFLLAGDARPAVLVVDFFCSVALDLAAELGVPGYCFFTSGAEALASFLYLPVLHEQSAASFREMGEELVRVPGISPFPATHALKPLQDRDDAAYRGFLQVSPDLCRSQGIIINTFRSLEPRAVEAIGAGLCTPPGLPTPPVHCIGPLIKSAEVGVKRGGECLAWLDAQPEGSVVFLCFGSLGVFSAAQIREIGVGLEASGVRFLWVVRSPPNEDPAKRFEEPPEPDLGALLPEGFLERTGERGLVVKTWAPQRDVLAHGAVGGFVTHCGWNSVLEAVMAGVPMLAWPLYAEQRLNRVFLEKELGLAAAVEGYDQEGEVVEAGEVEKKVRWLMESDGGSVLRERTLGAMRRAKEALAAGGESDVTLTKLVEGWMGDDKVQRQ

[2] = molecular target: T2, UGT88C14 (KN9204 allele of TraesCS2B01G012000) (Triticum aestivum, UniProt Z9F0T2E170); experiment: LC-MS glucosyltransferase assay; assay type: biochemical; settings: UDP-glucose as donor, Tris-HCl pH 7.5, 10 mM MgCl2, 37 °C; mainly 7-O-glucosylation
T2 construct: full-length natural allele from KN9204, StrepII-tagged, expressed in and purified from N. benthamiana
T2 sequence (Z9F0T2E170 1-489): T1 sequence (A0A3B6BZ82 1-489) with S90P, V363L, A455T

[3] = substrate: O=c1cc(-c2ccc(O)c(O)c2)oc2cc(O)cc(O)c12; experiment: LC-MS glucosyltransferase assay; assay type: biochemical, Triticum aestivum; settings: UDP-glucose as donor, Tris-HCl pH 7.5, 10 mM MgCl2, 37 °C, mainly 7-O-glucosylation
purified protein [4] = substrate: O=c1cc(-c2ccc(O)cc2)oc2cc(O)cc(O)c12; experiment: purified protein; settings: UDP-glucose as donor, Tris-HCl pH 7.5, 10 mM MgCl2, 37 °C, mainly 7-O-glucosylation
purified protein [5] = substrate: O=c1c(O)c(-c2ccc(O)cc2)oc2cc(O)cc(O)c12; experiment: purified protein; settings: UDP-glucose as donor, Tris-HCl pH 7.5, 10 mM MgCl2, 37 °C, mainly 7-O-glucosylation

Molecule: O=c1c(O)c(-c2ccc(O)c(O)c2)oc2cc(O)cc(O)c12 [quercetin]
Km [1]: > 1000 µM

Km [2]: 21.8 ± 9.15 µM
Molecule: O=c1cc(-c2ccc(O)cc2)oc2cc(O)cc(O)c12 [apigenin]

B1: UGT88C13 (TraesCS2B01G012000) (Triticum aestivum) (protein)
chain: T1 sequence (A0A3B6BZ82 1-489)
notes: also cloned in pGEX-6p-1 (GST)
Km [3]: 22.13 ± 6.54 µM
Km (purified protein [4]): 19.47 ± 6.76 µM
Km (purified protein [5]): 20.33 ± 5.75 µM
